The text below walks through data of US20180230457A1 (published 2018).

Residue numbers refer to the chain shown, from its start.

One may read the Kd as the equilibrium constant for the complex coming apart.

The target in experiment [1] is T1, bovine pancreatic RNase A (bovine, UniProt P61823 27-150).
T1 construct: mature; Commercial purified protein; Used unmodified in ITC and as plate coat; biotinylated only for phage selection
T1 sequence (looked up): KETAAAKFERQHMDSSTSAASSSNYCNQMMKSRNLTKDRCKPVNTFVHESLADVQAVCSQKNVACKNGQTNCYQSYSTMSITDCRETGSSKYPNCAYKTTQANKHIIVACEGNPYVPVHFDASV
In words: ITC, 25 C, RNase A binding with 1 mM nickel present. The procedure:
(§1) The binding parameters (K, ΔH°, ΔS°, and n) were determined using the single site binding model using the ITC add-in in Origin version 7 (MicroCal LLC). All titrations indicated a 1:1 interaction with observed stoichiometries equal to 1.0 (within 5%).
(§2) ITC experiments were performed using a MicroCal VP-ITC (MicroCal, LLC, Northampton, Mass.). All experiments were performed at 25° C. Proteins were dialyzed against the desired experimental buffer, which included PBS (20 mM NaPhosphate, 150 mM NaCl pH 7.4), TBS (20 mM Tris-HCl, 150 mM NaCl pH 7.4) and TBS-E (20 mM Tris, 150 mM NaCl, 1 mM EDTA, pH 7.4). For direct titration of NiCl₂ into the VHHmetal variant, concentrations were 2 mM and 200 μM for NiCl₂ and VHH, respectively. Based on the observed binding constant, this corresponds to a “cvalue” of 6.7, which is within the commonly acceptable range for the accurate determination of binding thermodynamics (Tellinghuisen, 2008; Wiseman et al. 1989). For competitive titrations, nickel was included in TBS without EDTA at concentrations ranging from 0-10 mM. Competitive VHH/RNase A titration experiments with a “c” value greater than 10 included protein concentrations ranging from 30 μM to 205 μM. Conditions included a 10-fold higher concentration of titrant (VHH). […] These experiments included using a 100-fold higher concentration of titrant (RNase A) relative to VHH. RNase A concentrations were between 150 μM and 800 μM. Extinction coefficients were determined using values determined by the methods described by Pace, et. al. (1995). […] For nickel/VHH titrations, the titrant nickel was dissolved in the appropriate dialysis buffer at a 10× concentration of the VHH. Experiments typically included 27, 10 μL injections with a 240 second delay between each injection. Dilution titrations indicated the absence of significant heats of dilution, consequently, no background dilution heat subtractions were necessary. The binding parameters (K, ΔH°, ΔS°, and n) were determined using the single site binding model using the ITC add-in in Origin version 7 (MicroCal LLC).
(ITC needs no label: the signal is the heat of the interaction.)

Experiment [2] addresses T1, bovine pancreatic RNase A. Put plainly: ITC, 25 C, no metal. The procedure: (§3) ITC experiments were performed using a MicroCal VP-ITC (MicroCal, LLC, Northampton, Mass.). All experiments were performed at 25° C. Proteins were dialyzed against the desired experimental buffer, which included PBS (20 mM NaPhosphate, 150 mM NaCl pH 7.4), TBS (20 mM Tris-HCl, 150 mM NaCl pH 7.4) and TBS-E (20 mM Tris, 150 mM NaCl, 1 mM EDTA, pH 7.4). For direct titration of NiCl₂ into the VHH-metal variant, concentrations were 2 mM and 200 μM for NiCl2 and VHH, respectively. Based on the observed binding constant, this corresponds to a “c-value” of 6.7, which is within the commonly acceptable range for the accurate determination of binding thermodynamics. For competitive titrations, nickel was included in TBS without EDTA at concentrations ranging from 0-10 mM. Competitive VHH/RNase A titration experiments with a “c” value greater than 10 included protein concentrations ranging from 30 μM to 205 μM. Conditions included a 10-fold higher concentration of titrant (VHH). […] These experiments included using a 100-fold higher concentration of titrant (RNase A) relative to VHH. RNase A concentrations were between 150 μM and 800 μM. […] For nickel/VHH titrations, the titrant nickel was dissolved in the appropriate dialysis buffer at a 10× concentration of the VHH. Experiments typically included 27, 10 μL injections with a 240 second delay between each injection. Dilution titrations indicated the absence of significant heats of dilution, consequently, no background dilution heat subtractions were necessary. The binding parameters (K, ΔH°, ΔS°, and n) were determined using the single site binding model using the ITC add-in in Origin version 7 (MicroCal LLC).

The target in experiment [3] is T1, bovine pancreatic RNase A. Put plainly: ITC, pH 4.74, piperazine.
Experiment [4] addresses T1, bovine pancreatic RNase A. Put plainly: ITC, pH 5.5, acetate.
Experiment [5] deals with T1, bovine pancreatic RNase A. Put plainly: ITC, pH profile 8.0 to 4.5.
Experiment [6] concerns the target T1, bovine pancreatic RNase A. In words: ITC, pH 7.4.
Experiment [7] concerns the target T1, bovine pancreatic RNase A. In words: ITC, pH 7.4, PBS.
The target in experiment [8] is T1, bovine pancreatic RNase A. Put plainly: ITC, pH 7, PBS.
Experiment [9] concerns the target T1, bovine pancreatic RNase A. In words: ITC, pH 7.4, against wild-type VHH.
Experiment [10] deals with T1, bovine pancreatic RNase A. Put plainly: ITC, pH 8, TRIS.
The target of experiment [11] is T1, bovine pancreatic RNase A. In words: ITC, pH 5, piperazine.
In experiment [12] the target is T1, bovine pancreatic RNase A. Put plainly: ITC, pH 6.5, imidazole.
The target of experiment [13] is T1, bovine pancreatic RNase A. Put plainly: ITC, pH 6, PBS.
Experiment [14] has as its target T1, bovine pancreatic RNase A. In words: ITC, pH 4.5, piperazine.
Experiment [15] deals with T1, bovine pancreatic RNase A. In words: ITC, 25 C, pH 7.4, no metal. The procedure: as §3
The target of experiment [16] is T1, bovine pancreatic RNase A. Put plainly: ITC, 25 C, no metal. As to the method:
(§4) Isothermal titration calorimetry (ITC) was used to evaluate the thermodynamic basis for VHH-metal's dual function. […] As expected, titrations of nickel into wild-type anti-RNase A VHH produced no measurable binding.
(§5) ITC experiments were performed using a MicroCal VP-ITC (MicroCal, LLC, Northampton, Mass.). All experiments were performed at 25° C. Proteins were dialyzed against the desired experimental buffer, which included PBS (20 mM NaPhosphate, 150 mM NaCl pH 7.4), TBS (20 mM Tris-HCl, 150 mM NaCl pH 7.4) and TBS-E (20 mM Tris, 150 mM NaCl, 1 mM EDTA, pH 7.4). For direct titration of NiCl₂ into the VHH-metal variant, concentrations were 2 mM and 200 μM for NiCl2 and VHH, respectively. Based on the observed binding constant, this corresponds to a “c-value” of 6.7, which is within the commonly acceptable range for the accurate determination of binding thermodynamics. For competitive titrations, nickel was included in TBS without EDTA at concentrations ranging from 0-10 mM. Competitive VHH/RNase A titration experiments with a “c” value greater than 10 included protein concentrations ranging from 30 μM to 205 μM. Conditions included a 10-fold higher concentration of titrant (VHH).
The source holds these as a separate data set.

The target in experiment [17] is T1, bovine pancreatic RNase A. In words: ITC, 25 C, RNase A binding with 10 mM nickel present. The procedure: as §1, §2
In experiment [18] the target is T1, bovine pancreatic RNase A. In words: competitive phage ELISA with and without 1 mM metals (Zn2+, Co2+, Ni2+). A general note: In an ELISA, binding on a coated surface is turned into a signal by an enzyme label.
Experiment [19] deals with T1, bovine pancreatic RNase A. Put plainly: ITC, 25 C, RNase A binding with 100 µM nickel present.
The target of experiment [20] is T1, bovine pancreatic RNase A. In words: ITC, 25 C, RNase A binding with 1 µM nickel present. The procedure:
as §1, §2

Experiment [21] has as its target T1, bovine pancreatic RNase A. Put plainly: ITC, 25 C, RNase A binding with 10 µM nickel present. As to the method: as §1, §2
The target of experiment [22] is T1, bovine pancreatic RNase A. In words: ITC, 25 C, no metal, against wild-type VHH. The procedure: as §4, §5

B1: wild-type anti-RNase A VHH (cAb-RN05) (VHH)
VHH: QVQLVESGGGLVQAGGSLRLSCAASGYAYTYIYMGWFRQAPGKEREGVAAMDSGGGGTLYADSVKGRFTISRDKGKNTVYLQMDSLKPEDTATYYCAAGGGYELRDRTYGQWGQGTQVTVSS
notes: Camelid single-domain antibody; Made in E. coli with an N-terminal hexa-His-TEV tag for ITC; also called VHH-wt; wt-VHH
With B1, in experiment [1], the “-TΔS°” value turned out to be 0.9 kcal/mol, the Kd was 16 nM, the “ΔG°” value was -10.6 kcal/mol and the “ΔH°” value is -10.7 kcal/mol. In experiment [2], the “-TΔS°” value was 1.9 kcal/mol, binding was characterised by a dissociation constant (Kd) of 19 nM, the “ΔG°” value is -10.5 kcal/mol and the “ΔH°” value was -12.4 kcal/mol.

B2: VHH#24 (pH clone #24) (VHH)
VHH: B1 VHH with A28H, Y29H, Y102H, E103H, R107H
B2: the “-TΔS” value in experiment [3] was 6.8 kcal/mol; in experiment [7], -2.5 kcal/mol; in [8], 0.7 kcal/mol; in experiment [10] it was -3.8 kcal/mol; in [11] it was -2.4 kcal/mol; in experiment [13] it was -8.6 kcal/mol. For the same molecule, the “-TΔS” value in [14] turned out to be 25.4 kcal/mol. Besides, the Kd came to 75000 nM in experiment [3]; 6300 nM in experiment [4]; 91 nM in experiment [6]; 200 nM in [7]; 200 nM in experiment [8]; 100 nM in experiment [10]. The values for the Kd in experiment [11], in experiment [12] and in [13] were 12000 nM, 400 nM and 6500 nM, respectively. Besides, the ΔG in experiment [3] was -5.62 kcal/mol; in experiment [4] it was -7.09 kcal/mol; in [7] it was -9.31 kcal/mol; in experiment [8], -9.07 kcal/mol; in [10] it was -9.37 kcal/mol; in [11], -7.03 kcal/mol. The ΔG was -8.73 kcal/mol in experiment [12], -7.07 kcal/mol in experiment [13] and -5.11 kcal/mol in experiment [14]. Further, the ΔH is -12.4 kcal/mol in experiment [3]; 3 kcal/mol in experiment [4]; -6.84 kcal/mol in [7]; -4.35 kcal/mol in experiment [8]; -9 kcal/mol in experiment [10]; -4.8 kcal/mol in experiment [11]. Also, the ΔH in experiment [12] was -9.44 kcal/mol; in experiment [13], 1.5 kcal/mol; in experiment [14], -30 kcal/mol. Besides, in experiment [5], the “fold decrease of the observed binding constant on decreasing the pH” value was about 10000 fold. Also, in experiment [9], the “fold difference of binding affinity from the wild-type value” was at most 5 fold.

B3: VHH-metal (metal sensitive anti-RNase A VHH) (VHH)
VHH: B1 VHH with A28P, Y29H, T30P, I32L, Y33H, E103Q, Q111H
notes: also called Metal-VHH; metal clone VHH
B3: the “-TΔS°” value in experiment [15] was 9 kcal/mol; in experiment [1], 0.09 kcal/mol; in experiment [17], 1.3 kcal/mol; in experiment [19], -1 kcal/mol; in experiment [20], 8 kcal/mol; in experiment [21], 3.6 kcal/mol. Moreover, the Kd in experiment [15] amounted to 157 nM; in experiment [1], 5640 nM; in experiment [16], 155 nM; in experiment [17], 34000 nM; in experiment [19], 900 nM; in experiment [20], 160 nM. In experiment [21], this molecule returned a Kd of 219 nM. For the same molecule, the “ΔG°” value in experiment [15] was -9.3 kcal/mol; in experiment [1], -7.13 kcal/mol; in experiment [17], -6.07 kcal/mol; in [19], -8.27 kcal/mol; in [20], -9.27 kcal/mol; in experiment [21] it was -9.1 kcal/mol. The “ΔH°” value is -17.8 kcal/mol in experiment [15]; -7.2 kcal/mol in [1]; -7.3 kcal/mol in experiment [17]; -7 kcal/mol in experiment [19]; -17.2 kcal/mol in experiment [20]; -12.7 kcal/mol in experiment [21]. In addition, the “fold change in IC50” value in [18] worked out at 1000 fold. The “fold decrease in binding affinity against wild type” value in [22] is about 8 fold. In experiment [22], the “ΔΔG°” value is 1.2 kcal/mol.
